Measured values: IntAct's records for PubMed 23892082

B1: TIP41-like protein (Homo sapiens), O75663 (parent)
chain: MMIHGFQSSHRDFCFGPWKLTASKTHIMKSADVEKLADELHMPSLPEMMFGDNVLRIQHGSGFGIEFNATDALRCVNNYQGMLKVACAEEWQESRTEGEHSKEVIKPYDWTYTTDYKGTLLGESLKLKVVPTTDHIDTEKLKAREQIKFFEEVLLFEDELHDHGVSSLSVKIRVMPSSFFLLLRFFLRIDGVLIRMNDTRLYHEADKTYMLREYTSRESKISSLMHVPPSLFTEPNEISQYLPIKEAVCEKLIFPERIDPNPADSQKSTQVE

Variants of: B1
Conditions: with pp2aa_rat Ppp2ca

effect of a mutation on the interaction	Variant
disrupting interaction	MMIHGFQSSHRDFCFGPWKLTASKTHIMKSADVEKLADELHMPSLPEMMFGDNVLRIQHGSGFGIEFNATLALRCVNNYQGMLKVACAEEWQESRTEGEHSKEVIKPYDWTYTTDYKGTLLGESLKLKVVPTTDHIDTEKLKAREQIKFFEEVLLFEDELHDHGVSSLSVKIRVMPSSFFLLLRFFLRIDGVLIRMNDTRLYHEADKTYMLREYTSRESKISSLMHVPPSLFTEPNEISQYLPIKEAVCEKLIFPERIDPNPADSQKSTQVE [D71L]
